From paper PMC11317151, “DNA binding and bridging by human CtIP in the healthy and diseased states”

B1: HEX fork (mixed)
DNA 1: GCTTGCTAGGACGGATCGCTCGAGGTTTTTTTTTTTTTTTTTTTT
DNA 2: TTTTTTTTTTTTTTTTTTTTCCTCGAGCGATCCGTCCTAGCAAGC
B2: Cy5 fork (mixed)
DNA 1: B1 DNA 1
DNA 2: B1 DNA 2

Columns and labels:
CtIP ΔN500b = CtIP ΔN500b (human, UniProt Q99708 501-897); assay: fluorescence anisotropy; Anisotropy: 20 mM Tris-Cl pH 8.0, 20 mM NaCl, 1 mM DTT, 5 nM HEX fork; EMSA: 20 mM Tris-Cl pH 8.0, 100 mM NaCl, 1 mM DTT, 0.1 mg/ml BSA, 5% glycerol, 2.5 nM Cy5 fork, room temperature; C-Trap reaction: 10 mM Tris-Cl pH 7.6, 20 mM NaCl, 1 mM DTT, 0.1 mg/ml BSA; settings: protein: recombinant; tags: StrepII; label: 5'-HEX on strand 1; fork: 25 bp duplex, 20 nt 3' and 5' dT arms
CtIP ΔN500b, sequence (Q99708 501-897, stated change not applied): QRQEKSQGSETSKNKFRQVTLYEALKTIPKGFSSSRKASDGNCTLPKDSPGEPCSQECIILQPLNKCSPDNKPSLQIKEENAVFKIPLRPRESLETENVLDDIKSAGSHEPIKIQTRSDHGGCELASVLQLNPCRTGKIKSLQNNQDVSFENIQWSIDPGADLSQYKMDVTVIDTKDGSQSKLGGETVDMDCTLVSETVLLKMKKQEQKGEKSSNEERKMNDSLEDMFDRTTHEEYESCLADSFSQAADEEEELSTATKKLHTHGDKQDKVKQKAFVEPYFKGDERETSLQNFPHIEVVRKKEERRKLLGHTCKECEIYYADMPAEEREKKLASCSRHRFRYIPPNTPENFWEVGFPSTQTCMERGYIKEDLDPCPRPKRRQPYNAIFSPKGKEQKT

CtIP WT [1] = target: T1, CtIP WT (human, UniProt Q99708 1-897); assay: as above; settings: protein: recombinant; tags: StrepII (cleavable); chain copies: 4; label: 5'-HEX on strand 1; fork: 25 bp duplex, 20 nt 3' and 5' dT arms
T1 sequence (Q99708 whole entry): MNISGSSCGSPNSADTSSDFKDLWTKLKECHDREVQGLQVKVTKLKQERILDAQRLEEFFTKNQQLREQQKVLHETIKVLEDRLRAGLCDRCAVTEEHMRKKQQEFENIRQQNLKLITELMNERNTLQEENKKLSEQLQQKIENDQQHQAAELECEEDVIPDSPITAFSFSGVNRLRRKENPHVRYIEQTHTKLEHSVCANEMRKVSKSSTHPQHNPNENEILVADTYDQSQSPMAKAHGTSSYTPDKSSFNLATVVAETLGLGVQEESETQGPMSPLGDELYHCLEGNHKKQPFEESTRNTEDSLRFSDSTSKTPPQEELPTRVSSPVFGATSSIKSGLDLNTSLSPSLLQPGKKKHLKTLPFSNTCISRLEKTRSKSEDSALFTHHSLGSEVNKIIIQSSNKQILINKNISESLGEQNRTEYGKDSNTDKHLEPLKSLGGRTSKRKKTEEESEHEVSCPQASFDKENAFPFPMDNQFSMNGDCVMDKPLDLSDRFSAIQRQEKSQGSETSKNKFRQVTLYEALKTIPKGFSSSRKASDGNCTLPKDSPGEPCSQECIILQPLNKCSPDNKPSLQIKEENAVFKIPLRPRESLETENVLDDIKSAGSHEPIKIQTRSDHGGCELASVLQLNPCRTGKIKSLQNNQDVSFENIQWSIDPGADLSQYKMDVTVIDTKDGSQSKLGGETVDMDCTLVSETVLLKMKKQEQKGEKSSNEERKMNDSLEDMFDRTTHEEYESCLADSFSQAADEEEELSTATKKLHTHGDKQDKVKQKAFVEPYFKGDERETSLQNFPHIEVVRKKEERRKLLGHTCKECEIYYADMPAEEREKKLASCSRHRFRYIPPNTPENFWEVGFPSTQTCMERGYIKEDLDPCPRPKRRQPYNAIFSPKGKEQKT

CtIP ΔN541a = CtIP ΔN541a (human, UniProt Q99708 542-897); assay: as above; settings: protein: recombinant; tags: StrepII; chain copies: 2; label: 5'-HEX on strand 1; fork: 25 bp duplex, 20 nt 3' and 5' dT arms
CtIP ΔN541a, sequence (Q99708 542-897, stated change not applied): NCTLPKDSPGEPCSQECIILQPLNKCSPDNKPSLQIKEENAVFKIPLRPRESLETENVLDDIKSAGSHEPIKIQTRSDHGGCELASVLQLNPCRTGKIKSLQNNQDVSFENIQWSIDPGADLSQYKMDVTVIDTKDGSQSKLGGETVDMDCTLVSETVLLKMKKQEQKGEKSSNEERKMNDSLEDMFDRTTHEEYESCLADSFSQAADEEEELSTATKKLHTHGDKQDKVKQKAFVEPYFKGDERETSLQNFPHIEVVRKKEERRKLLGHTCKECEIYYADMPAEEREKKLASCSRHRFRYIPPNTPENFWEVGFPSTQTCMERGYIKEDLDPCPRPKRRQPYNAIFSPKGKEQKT

CtIP ΔN500a = CtIP ΔN500a (human, UniProt Q99708 501-897); assay: as above; settings: protein: recombinant; tags: StrepII; chain copies: 2; label: 5'-HEX on strand 1; fork: 25 bp duplex, 20 nt 3' and 5' dT arms
CtIP ΔN500a, sequence (Q99708 501-897, stated change not applied): as the sequence (Q99708 501-897, stated change not applied) above

CtIP R100W = CtIP R100W (human, UniProt Q99708 1-897, R100W); assay: as above; settings: protein: recombinant; tags: StrepII; chain copies: 4; label: 5'-HEX on strand 1; fork: 25 bp duplex, 20 nt 3' and 5' dT arms
CtIP R100W, sequence (Q99708 whole entry R100W): as the sequence (Q99708 whole entry) above, with R100W counted along it

CtIP ΔN541b = CtIP ΔN541b (human, UniProt Q99708 542-897); assay: as above; settings: protein: recombinant; tags: StrepII; label: 5'-HEX on strand 1; fork: 25 bp duplex, 20 nt 3' and 5' dT arms
CtIP ΔN541b, sequence (Q99708 542-897, stated change not applied): as the sequence (Q99708 542-897, stated change not applied) above

CtIP ΔC608 [2] = target: T2, CtIP ΔC608 (human, UniProt Q99708 1-608); assay: fluorescence anisotropy; no binding at 400 nM; Anisotropy: 20 mM Tris-Cl pH 8.0, 20 mM NaCl, 1 mM DTT, 5 nM HEX fork; EMSA: 20 mM Tris-Cl pH 8.0, 100 mM NaCl, 1 mM DTT, 0.1 mg/ml BSA, 5% glycerol, 2.5 nM Cy5 fork, room temperature; C-Trap reaction: 10 mM Tris-Cl pH 7.6, 20 mM NaCl, 1 mM DTT, 0.1 mg/ml BSA; settings: protein: recombinant; tags: StrepII; chain copies: 4; label: 5'-HEX on strand 1; fork: 25 bp duplex, 20 nt 3' and 5' dT arms
T2 sequence (Q99708 1-608, stated change not applied): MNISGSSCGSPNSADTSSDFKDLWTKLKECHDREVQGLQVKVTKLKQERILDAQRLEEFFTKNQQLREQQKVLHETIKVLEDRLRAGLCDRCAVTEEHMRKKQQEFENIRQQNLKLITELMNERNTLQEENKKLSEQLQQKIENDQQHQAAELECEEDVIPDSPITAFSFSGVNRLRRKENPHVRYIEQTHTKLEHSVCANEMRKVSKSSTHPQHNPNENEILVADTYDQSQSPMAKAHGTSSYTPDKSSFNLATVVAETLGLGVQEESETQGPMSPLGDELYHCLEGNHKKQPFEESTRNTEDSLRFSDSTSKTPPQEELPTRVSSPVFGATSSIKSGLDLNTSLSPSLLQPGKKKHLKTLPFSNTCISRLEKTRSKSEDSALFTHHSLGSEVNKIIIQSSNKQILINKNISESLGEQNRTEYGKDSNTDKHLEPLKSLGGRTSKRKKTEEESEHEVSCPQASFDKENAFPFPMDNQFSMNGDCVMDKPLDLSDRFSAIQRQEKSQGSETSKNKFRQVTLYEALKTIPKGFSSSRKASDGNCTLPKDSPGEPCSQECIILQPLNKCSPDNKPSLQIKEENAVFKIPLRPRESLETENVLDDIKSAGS

CtIP WT [3] = target: T1, CtIP WT; assay: fluorescence anisotropy; independent repeat; Anisotropy: 20 mM Tris-Cl pH 8.0, 20 mM NaCl, 1 mM DTT, 5 nM HEX fork; EMSA: 20 mM Tris-Cl pH 8.0, 100 mM NaCl, 1 mM DTT, 0.1 mg/ml BSA, 5% glycerol, 2.5 nM Cy5 fork, room temperature; C-Trap reaction: 10 mM Tris-Cl pH 7.6, 20 mM NaCl, 1 mM DTT, 0.1 mg/ml BSA; settings: protein: recombinant; tags: StrepII (cleavable); chain copies: 4; label: 5'-HEX on strand 1; fork: 25 bp duplex, 20 nt 3' and 5' dT arms
MBP-CtIP-800-843 = MBP-CtIP-800-843 (human, UniProt Q99708 800-843); assay: fluorescence-based binding assay; label not certain; weak binding equation; Anisotropy: 20 mM Tris-Cl pH 8.0, 20 mM NaCl, 1 mM DTT, 5 nM HEX fork; EMSA: 20 mM Tris-Cl pH 8.0, 100 mM NaCl, 1 mM DTT, 0.1 mg/ml BSA, 5% glycerol, 2.5 nM Cy5 fork, room temperature; C-Trap reaction: 10 mM Tris-Cl pH 7.6, 20 mM NaCl, 1 mM DTT, 0.1 mg/ml BSA; settings: protein: recombinant; tags: MBP; label: 5'-HEX on strand 1; fork: 25 bp duplex, 20 nt 3' and 5' dT arms
MBP-CtIP-800-843, sequence (Q99708 800-843): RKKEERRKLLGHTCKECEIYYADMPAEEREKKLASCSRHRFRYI

CtIP ΔC608 [4] = target: T2, CtIP ΔC608; assay: EMSA; undetectable at highest concentration; Anisotropy: 20 mM Tris-Cl pH 8.0, 20 mM NaCl, 1 mM DTT, 5 nM HEX fork; EMSA: 20 mM Tris-Cl pH 8.0, 100 mM NaCl, 1 mM DTT, 0.1 mg/ml BSA, 5% glycerol, 2.5 nM Cy5 fork, room temperature; C-Trap reaction: 10 mM Tris-Cl pH 7.6, 20 mM NaCl, 1 mM DTT, 0.1 mg/ml BSA; settings: protein: recombinant; tags: StrepII; chain copies: 4; label: 5'-Cy5 on strand 1; fork: 25 bp duplex, 20 nt 3' and 5' dT arms
CtIP ΔN790 = CtIP ΔN790 (human, UniProt Q99708 791-897); assay: fluorescence quenching; Results say Cy5-fork; Methods imply HEX (550 nm); Anisotropy: 20 mM Tris-Cl pH 8.0, 20 mM NaCl, 1 mM DTT, 5 nM HEX fork; EMSA: 20 mM Tris-Cl pH 8.0, 100 mM NaCl, 1 mM DTT, 0.1 mg/ml BSA, 5% glycerol, 2.5 nM Cy5 fork, room temperature; C-Trap reaction: 10 mM Tris-Cl pH 7.6, 20 mM NaCl, 1 mM DTT, 0.1 mg/ml BSA; settings: protein: recombinant; tags: StrepII; label: 5'-Cy5 on strand 1; fork: 25 bp duplex, 20 nt 3' and 5' dT arms
CtIP ΔN790, sequence (Q99708 791-897, stated change not applied): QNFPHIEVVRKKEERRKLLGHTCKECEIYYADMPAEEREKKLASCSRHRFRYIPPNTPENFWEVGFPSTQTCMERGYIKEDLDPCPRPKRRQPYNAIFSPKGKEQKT

Row | Binder | Kd (CtIP ΔN500b) [nM] | Kd (CtIP WT [1]) [nM] | Kd (CtIP ΔN541a) [nM] | Kd (CtIP ΔN500a) [nM] | Kd (CtIP R100W) [nM] | Kd (CtIP ΔN541b) [nM] | binding result (CtIP ΔC608 [2]) | Kd (CtIP WT [3]) [nM] | Kd (MBP-CtIP-800-843) [nM] | binding result (CtIP ΔC608 [4]) | Kd (CtIP ΔN790) [nM]
1 | B1 | 33 | 66 | 210 | 45 | 115 | 960 | no binding | 37 | 520 |  | 
2 | B2 |  |  |  |  |  |  |  |  |  | no binding | 270
